Tested on: peptide library, one residue held at a place counted from the S/T acceptor
Assay: relative phosphorylation of the sub-library (ratio to the mean residue at this position); higher = residue favoured
Method in brief: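 Spots on streptavidin membranes were phosphorimaged and quantified by densitometry to measure phosphorylation of biotinylated degenerate peptide sub-libraries by purified recombinant kinases, human or orthologue constructs. The reactions ran in 384-well plates for 90 min under kinase-specific conditions, with peptides at 50 μM and 50 μM ATP spiked with γ-32P-ATP. Relative sub-library phosphorylation is the ratio to the mean residue at that position.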

Sequence of MARK4, construct: Full length, human (Q96L34 whole entry, looked up): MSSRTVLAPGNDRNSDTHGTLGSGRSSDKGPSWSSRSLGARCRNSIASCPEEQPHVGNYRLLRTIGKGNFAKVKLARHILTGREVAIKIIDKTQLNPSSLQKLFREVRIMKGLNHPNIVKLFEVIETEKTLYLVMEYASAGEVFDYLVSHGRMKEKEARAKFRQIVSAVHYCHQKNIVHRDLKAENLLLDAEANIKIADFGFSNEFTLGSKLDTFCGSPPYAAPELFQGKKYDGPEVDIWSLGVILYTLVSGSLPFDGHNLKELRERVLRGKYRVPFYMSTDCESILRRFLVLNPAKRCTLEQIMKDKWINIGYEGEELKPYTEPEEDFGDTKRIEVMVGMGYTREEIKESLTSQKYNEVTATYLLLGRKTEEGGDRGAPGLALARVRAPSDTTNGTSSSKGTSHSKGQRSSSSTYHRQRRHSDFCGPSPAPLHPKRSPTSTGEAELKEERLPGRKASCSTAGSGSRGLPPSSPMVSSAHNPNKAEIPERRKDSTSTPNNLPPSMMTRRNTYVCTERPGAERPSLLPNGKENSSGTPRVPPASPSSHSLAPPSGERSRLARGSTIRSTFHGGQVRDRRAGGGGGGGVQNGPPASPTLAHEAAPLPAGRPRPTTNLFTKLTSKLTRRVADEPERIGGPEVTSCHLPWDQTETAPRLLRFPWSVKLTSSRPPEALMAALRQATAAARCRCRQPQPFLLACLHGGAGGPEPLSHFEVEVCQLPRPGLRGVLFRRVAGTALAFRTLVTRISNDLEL
Sequence of MAPKAPK3, construct: Full length, human (Q16644 whole entry, looked up): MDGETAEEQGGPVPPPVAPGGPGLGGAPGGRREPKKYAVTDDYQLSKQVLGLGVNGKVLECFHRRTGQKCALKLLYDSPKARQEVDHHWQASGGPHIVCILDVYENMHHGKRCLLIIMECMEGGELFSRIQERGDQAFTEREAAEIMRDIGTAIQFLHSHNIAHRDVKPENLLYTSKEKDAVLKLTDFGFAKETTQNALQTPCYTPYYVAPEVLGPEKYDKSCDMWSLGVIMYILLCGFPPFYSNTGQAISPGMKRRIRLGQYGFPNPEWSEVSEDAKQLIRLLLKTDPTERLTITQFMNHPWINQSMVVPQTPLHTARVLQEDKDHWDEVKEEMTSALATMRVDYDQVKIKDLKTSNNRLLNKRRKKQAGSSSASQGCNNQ
Sequence of MYLK, construct: aa1425-1771, human (Q15746 1425-1771, looked up): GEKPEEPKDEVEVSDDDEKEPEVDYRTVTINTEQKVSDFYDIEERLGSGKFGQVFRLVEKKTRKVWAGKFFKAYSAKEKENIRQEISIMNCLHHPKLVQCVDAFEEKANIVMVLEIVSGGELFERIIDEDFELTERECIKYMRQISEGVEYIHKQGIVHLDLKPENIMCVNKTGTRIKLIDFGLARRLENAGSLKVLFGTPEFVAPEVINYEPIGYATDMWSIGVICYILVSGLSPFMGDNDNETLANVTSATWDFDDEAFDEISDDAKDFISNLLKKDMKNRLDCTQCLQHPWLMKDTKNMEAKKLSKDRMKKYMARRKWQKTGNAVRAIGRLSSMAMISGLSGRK
Sequence of MYLK4, construct: Full length, human (Q86YV6 whole entry, looked up): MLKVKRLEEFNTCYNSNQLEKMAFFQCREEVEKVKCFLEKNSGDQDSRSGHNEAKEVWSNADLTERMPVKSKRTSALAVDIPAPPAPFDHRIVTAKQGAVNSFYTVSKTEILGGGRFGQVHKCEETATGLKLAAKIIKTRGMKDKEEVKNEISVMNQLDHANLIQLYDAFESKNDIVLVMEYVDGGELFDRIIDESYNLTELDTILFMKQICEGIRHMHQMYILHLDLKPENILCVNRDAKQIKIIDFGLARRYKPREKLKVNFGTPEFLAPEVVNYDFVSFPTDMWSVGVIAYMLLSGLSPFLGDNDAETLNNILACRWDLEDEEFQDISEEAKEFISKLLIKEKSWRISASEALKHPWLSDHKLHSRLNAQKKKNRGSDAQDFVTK

MAPKAPK3, construct: Full length, human (from UniProt Q16644)
relative phosphorylation
Settings | at +1 | at +2 | at +3 | at +4 | at -1 | at -2 | at -3 | at -4 | at -5
A fixed | 0.674 | 1.05 | 1.17 | 1.02 | 0.861 | 1.42 | 0.885 | 1.11 | 0.659
D fixed | 0.406 | 1.06 | 1.47 | 1.21 | 0.649 | 0.266 | 0.193 | 0.495 | 0.203
E fixed | 0.637 | 0.868 | 1.52 | 1.02 | 0.573 | 0.386 | 0.222 | 0.764 | 0.187
F fixed | 1.04 | 0.749 | 0.722 | 0.727 | 1.05 | 0.806 | 0.438 | 0.896 | 1.97
G fixed | 0.54 | 0.872 | 1.5 | 1.26 | 0.579 | 0.968 | 0.614 | 0.88 | 0.453
H fixed | 1.26 | 1.31 | 1.05 | 1.01 | 1.23 | 0.903 | 1.34 | 1.12 | 0.689
I fixed | 1.21 | 0.813 | 0.518 | 0.711 | 0.838 | 0.462 | 0.211 | 0.795 | 1.31
K fixed | 1.07 | 0.94 | 0.807 | 1.14 | 1.3 | 0.927 | 2.05 | 1.79 | 0.646
L fixed | 1.05 | 0.794 | 0.645 | 0.823 | 1.24 | 1.04 | 0.314 | 1.12 | 1.71
M fixed | 1.31 | 0.826 | 0.675 | 0.84 | 1.21 | 1.5 | 0.487 | 1.26 | 1.2
N fixed | 1.08 | 1.26 | 1.13 | 1.16 | 1.13 | 0.857 | 0.682 | 0.76 | 0.361
P fixed | 0.229 | 1.27 | 1.82 | 1.54 | 1.22 | 0.638 | 0.883 | 0.627 | 1.15
Q fixed | 1.21 | 1.13 | 1.01 | 1.15 | 0.973 | 2.92 | 0.919 | 1.13 | 0.688
R fixed | 1.7 | 1.26 | 0.851 | 1.04 | 1.23 | 1.6 | 6.2 | 1.64 | 1.41
V fixed | 1.45 | 0.974 | 0.707 | 0.758 | 0.99 | 0.724 | 0.252 | 0.872 | 1.13
W fixed | 0.878 | 0.795 | 0.66 | 0.919 | 0.716 | 0.786 | 0.796 | 0.804 | 2.1
Y fixed | 1.24 | 1.02 | 0.745 | 0.67 | 1.21 | 0.788 | 0.521 | 0.931 | 1.15
pThr fixed | 0.99 | 0.759 | 0.687 | 1.1 | 0.449 | 0.345 | 0.244 | 0.464 | 0.333
pTyr fixed | 1.79 | 0.934 | 1.05 | 0.812 | 0.732 | 0.334 | 0.233 | 0.572 | 0.563

MARK4, construct: Full length, human (from UniProt Q96L34)
relative phosphorylation
Settings | at +1 | at +2 | at +3 | at +4 | at -1 | at -2 | at -3 | at -4 | at -5
A fixed | 0.923 | 1 | 0.855 | 0.686 | 1.2 | 1.82 | 0.932 | 1.32 | 1.32
D fixed | 0.605 | 0.8 | 1.94 | 0.629 | 0.694 | 0.498 | 0.552 | 0.801 | 0.875
E fixed | 0.864 | 1.08 | 0.886 | 0.529 | 0.582 | 0.447 | 0.522 | 0.844 | 0.676
F fixed | 0.652 | 0.854 | 0.919 | 0.788 | 0.472 | 1.08 | 0.91 | 0.875 | 1.03
G fixed | 0.706 | 0.562 | 0.687 | 0.611 | 2.59 | 1.62 | 0.951 | 1.32 | 1.15
H fixed | 0.956 | 1.01 | 1.45 | 0.652 | 0.868 | 1.26 | 1.25 | 1.11 | 0.977
I fixed | 0.933 | 0.829 | 0.653 | 2.53 | 0.464 | 0.599 | 0.572 | 0.61 | 0.818
K fixed | 0.83 | 0.707 | 0.627 | 0.517 | 1.64 | 0.884 | 1.65 | 1.34 | 1.33
L fixed | 1.11 | 1.14 | 0.857 | 4.02 | 0.668 | 0.479 | 0.692 | 0.726 | 1.27
M fixed | 1.89 | 0.973 | 0.879 | 1.41 | 0.756 | 0.62 | 0.881 | 1.04 | 0.969
N fixed | 1.17 | 1.02 | 2.69 | 0.601 | 0.982 | 0.718 | 0.695 | 0.913 | 0.753
P fixed | 0.372 | 0.785 | 0.344 | 0.587 | 1.37 | 0.709 | 1.08 | 1.1 | 0.893
Q fixed | 1.74 | 1.11 | 0.894 | 0.576 | 1.3 | 0.6 | 0.751 | 0.775 | 0.81
R fixed | 1.12 | 0.826 | 0.592 | 0.41 | 1.36 | 0.97 | 2.57 | 1.34 | 1.2
V fixed | 1.29 | 0.872 | 0.634 | 1.27 | 0.721 | 0.682 | 0.634 | 0.711 | 0.972
W fixed | 0.9 | 2.44 | 0.961 | 0.58 | 0.581 | 2.41 | 1.42 | 1.17 | 1.13
Y fixed | 0.94 | 0.991 | 1.13 | 0.6 | 0.758 | 1.6 | 0.938 | 1 | 0.819
pThr fixed | 0.858 | 0.855 | 0.4 | 0.541 | 0.428 | 0.577 | 0.542 | 0.786 | 0.706
pTyr fixed | 0.58 | 0.648 | 0.716 | 0.471 | 0.618 | 0.611 | 0.636 | 0.802 | 0.681

MYLK4, construct: Full length, human (from UniProt Q86YV6)
relative phosphorylation
Settings | at +1 | at +2 | at +3 | at +4 | at -1 | at -2 | at -3 | at -4 | at -5
A fixed | 0.96 | 0.643 | 0.61 | 0.778 | 0.871 | 0.876 | 0.764 | 1.09 | 0.837
D fixed | 0.566 | 0.833 | 0.854 | 0.974 | 0.639 | 0.272 | 0.32 | 0.437 | 0.41
E fixed | 0.776 | 1.04 | 0.652 | 0.871 | 0.49 | 0.273 | 0.339 | 0.628 | 0.432
F fixed | 1.25 | 1.2 | 1.59 | 1.04 | 0.915 | 0.405 | 0.511 | 0.909 | 1.23
G fixed | 0.814 | 0.588 | 0.715 | 0.858 | 0.533 | 0.468 | 0.544 | 1.01 | 0.735
H fixed | 0.885 | 1.27 | 0.849 | 0.917 | 1.13 | 1.17 | 0.737 | 0.907 | 0.912
I fixed | 1.01 | 1.03 | 1.05 | 1.27 | 0.817 | 0.485 | 0.63 | 1.02 | 1.25
K fixed | 1.28 | 1.39 | 0.718 | 0.807 | 1.8 | 1.76 | 2.19 | 1.89 | 1.65
L fixed | 1.03 | 1.02 | 1.27 | 1.33 | 1.74 | 0.412 | 0.455 | 0.915 | 1.24
M fixed | 1.3 | 0.948 | 1.09 | 0.938 | 1.19 | 0.5 | 0.538 | 0.973 | 1.06
N fixed | 0.921 | 0.946 | 1.01 | 1.05 | 1.34 | 0.588 | 0.498 | 0.826 | 0.694
P fixed | 0.386 | 0.713 | 0.517 | 1.18 | 0.775 | 0.389 | 0.538 | 0.743 | 0.843
Q fixed | 1.27 | 0.949 | 0.659 | 1.04 | 0.889 | 0.725 | 0.631 | 0.925 | 0.749
R fixed | 1.55 | 1.41 | 0.808 | 0.818 | 1.49 | 7.39 | 6.83 | 2.06 | 1.85
V fixed | 0.981 | 1.09 | 0.834 | 0.982 | 0.701 | 0.411 | 0.507 | 1.01 | 1
W fixed | 1.13 | 0.89 | 2.75 | 1.27 | 0.839 | 0.466 | 0.517 | 0.719 | 0.852
Y fixed | 0.888 | 1.04 | 1.04 | 0.883 | 0.848 | 0.416 | 0.449 | 0.936 | 1.26
pThr fixed | 1.88 | 1.98 | 0.701 | 1.09 | 0.794 | 0.666 | 0.917 | 0.92 | 0.692
pTyr fixed | 0.998 | 1.68 | 1.14 | 1.15 | 1.03 | 0.469 | 0.94 | 0.797 | 0.752

MYLK, construct: aa1425-1771, human (from UniProt Q15746)
relative phosphorylation
Settings | at +1 | at +2 | at +3 | at +4 | at -1 | at -2 | at -3 | at -4 | at -5
A fixed | 0.785 | 0.75 | 0.611 | 0.755 | 0.803 | 0.95 | 0.781 | 0.743 | 0.704
D fixed | 0.578 | 0.935 | 0.68 | 0.835 | 0.963 | 0.38 | 0.392 | 0.516 | 0.472
E fixed | 0.631 | 0.874 | 0.625 | 0.747 | 0.696 | 0.378 | 0.403 | 0.586 | 0.483
F fixed | 0.917 | 1.27 | 1.37 | 1.15 | 0.87 | 0.584 | 0.653 | 1.45 | 1.21
G fixed | 0.781 | 0.599 | 0.713 | 0.906 | 0.933 | 0.631 | 0.586 | 0.819 | 0.737
H fixed | 0.706 | 0.914 | 0.744 | 1.28 | 1.06 | 1.01 | 0.876 | 0.94 | 0.916
I fixed | 1.49 | 0.99 | 2.08 | 0.946 | 0.789 | 0.499 | 0.7 | 1.06 | 1.06
K fixed | 1.36 | 1.19 | 1.03 | 1.18 | 1.27 | 1.93 | 1.63 | 1.41 | 1.21
L fixed | 1.01 | 1.09 | 1.65 | 0.952 | 1.13 | 0.505 | 0.619 | 0.898 | 1.08
M fixed | 1.51 | 1.26 | 1.21 | 0.946 | 1.17 | 0.607 | 0.66 | 1.05 | 1.04
N fixed | 0.873 | 0.86 | 0.771 | 1.03 | 1.55 | 0.834 | 0.591 | 0.723 | 0.677
P fixed | 0.615 | 0.675 | 0.637 | 1.01 | 0.896 | 0.465 | 0.556 | 0.651 | 0.722
Q fixed | 1.32 | 1.02 | 0.718 | 0.987 | 1.08 | 1.07 | 0.777 | 0.895 | 0.794
R fixed | 1.59 | 1.56 | 1.06 | 1.22 | 1.49 | 5.45 | 5.91 | 1.86 | 1.89
V fixed | 1.34 | 0.93 | 1.14 | 0.814 | 0.791 | 0.521 | 0.566 | 1 | 0.882
W fixed | 0.676 | 0.749 | 0.907 | 1.27 | 0.636 | 0.594 | 0.611 | 1.03 | 0.875
Y fixed | 0.819 | 1.33 | 1.05 | 0.96 | 0.874 | 0.587 | 0.69 | 1.35 | 2.24
pThr fixed | 1.48 | 1.39 | 0.785 | 1.03 | 0.744 | 0.528 | 0.543 | 0.678 | 0.667
pTyr fixed | 0.795 | 1.19 | 0.925 | 0.965 | 1.07 | 0.51 | 0.784 | 0.669 | 0.772

— the supplement of paper PMC9876800
